Results taken from the nanobody polyreactivity screen of Harvey et al. (2022).

Test: yeast display, Sf9 membrane polyspecificity reagent, FACS + sequencing; frameworks hold sequencing errors
Outline: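 Nanobodies from a synthetic yeast display library (Saccharomyces cerevisiae BJ5465), induced 36–48 hours with galactose, were stained 1 hour at 4 °C with 10% biotinylated, detergent-solubilized Sf9 membrane reagent, enriched on streptavidin microbeads, then FACS-sorted. Anti-HA (expression) and streptavidin (reagent binding) fluorescence set low and high (top ~1%) gates. Polyreactivity labels come from the gate of origin. Genes were colony-PCR amplified, MiSeq 2 × 250 sequenced and filtered by CDR length.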

Sequence | polyreactivity (PSR sort gate)
QVQLVESGGGLVQAGGSLRLSCASSGSTFLINAMGWYRQAPGKERELVAAISRDGSTNYADSVKGRFTISRDNAKNTVYLQMHSLIPEDTAVYSCAAVPGISVGRQPGYDYDYWGQGTQVTVSS | low polyreactivity
QVQLVESGGGLVQAGGSLRLSCASSGSTFPSYAMGWYRQAPGKERELVAAINSGGGTNYADSVKGRFTISRDNAKNTVYLQMNSLKPEDTAVYYCAAYEGTYFTEVDYWGQGTQVTVSS | low polyreactivity
QVQLVESGGGLVQAGGSLRLSCASSGSTFRKNTMGWYIPAPGKEREFVAAISRSGGSTYYADSVKGRFTISRDNAKNTVYLQMNSLKPEDTAVYYCAASYYPHQYSYELGDYWGQGTQVTVSS | low polyreactivity
QVQLVESGGGLVQAGGSLRLSCASSGSTFSRYALGWYRQAPGKERELVAAITSYGGSTYYADSVKGRFTISRDKAKNTFYLQMNSLKPEYTAVYYCAASYQVRYDYWGQGTQVTVSS | high polyreactivity
QVQLVESGGGLVQAGGSLRLSCASSGSTFTRYAMGWYRQAPGKERELVAAINSSGGRTYYADSVKGRFTISRDNAKNTVYLQMNSLKPEDTAVYYCAATRGRYREDEDYWGQGTQVTVSS | high polyreactivity
QVQLVESGGGLVQAGGSLRLSCASSGSTFWPNAMGWYRQAPGKERELVAAITGGGGTNYADSVKGRFTISRDNAKNTVYLQMNSLKPEDTAVYYCAAKKVNSRSHVKYYYWGQGTQVTVSS | high polyreactivity
QVQLVESGGGLVQAGGSLRLSCASSGSTSYRYAMGWYRQAPGKERELVAAISSSGGSTYYADSVKGRFTISRDNAKNTVYLQMNSLKPEDTAVYYCAARFYSGPGGYTMYYWGQGTQVTVSS | high polyreactivity
QVQLVESGGGLVQAGGSLRLSCASSGTIFKYSAMGWYIQAPGKEREFVAGISWSGGRTYYADSVKGRFTISRDNAKITVYLHMNSLKPEDTAVYYCARVRLTSYGYYSWGQGTQVTVSS | high polyreactivity
QVQLVESGGGLVQAGGSLRLSCASSGTIFSWYTMGRYRQAPGKERELVARITTSGGTTRYADSVKGRFTISRDNAKNTVYFQINSLKPEDTAVYYCAADRSPYWRGYFRYNYWGQGSQVTVSS | high polyreactivity
QVQLVESGGGLVQAGGSLRLSCASSGTLYRYAMGWYIQATGKERELVAAISSNGGSTYYADSVKGRFTISRDNEKNTVYLQMNSLKPEDTAVYYCNALSRRFPLYGFWGQGTQVTVSS | high polyreactivity
QVQLVESGGGLVQAGGSLRLSCASSGTTFQYYAMGSYRQAPGKERELVARISDSSANTYYADSVNGRFTISRDNAMNTVYLQMNSLKPEDTAVYYCAASVPYKFYCVVSVRYEYWGQGTQVTVSS | low polyreactivity
QVQLVESGGGLVQAGGSLRLSCASSGYIITRKAMGWYRQAPGKERELVATISSRGGRTYYADSVKGRFTISRDNAKNTVYLQMNSLKPEDTAVYYCAATPWYRTRTYDYWGQGTQVTVSS | high polyreactivity
QVQLVESGGGLVQAGGSLRLSCASSGYTFTVNAMGWYRQAPGKERELVAAISGSGGSTYYADSVKGRFTISRDNAKNTVYLQMNSLKPEDTAVYYCAADYWYYYWPLDYWGQGTQVTVSS | high polyreactivity
QVQLVESGGGLVQAGGSLRLSCASSVSTVKYAMGWYRQAPGKERELVAAISKSAGRTYYADSVKGRFTISRDNAKNTVYLQMNSLKPVDTAVYYCADRQSYYGDDYWGQCTQVTVSS | high polyreactivity
QVQLVESGGGLVQAGGSLRLSCASTGFTFYRYAMGWYRQARGKERELVAAITRSGSRTYYADSVKGRFTISRDNAKNTVYLQMNSLKPEDTAVYYCNAPRPASTDRRRYNYWGQGTQVTVSS | high polyreactivity
QVQLVESGGGLVQAGGSLRLSCASTGSTFTTYAMGWYRQPPGKERELVAAISSRSTRTYYADSVKGRFTISRDNAKNTVYLQMNSLKPEDTAVYYCAASVPWKYEYWGQGTQVTVSS | high polyreactivity
QVQLVESGGGLVQAGGSLRLSCATSGRTFRFNAMGWYRQAPGKEREFVAAITSGGGTYYADSVKGRFTISRDNAKNTLDLQMNSLKPEDTAVYYCAAPRQYYLMDYWGQGTQVTVSS | low polyreactivity
QVQLVESGGGLVQAGGSLRLSCATSGRTYVPAMGWYRQAPGKERALVAAITSSGITYYADSVKGRVTISRDNAKNTVYLQMNSLNPEDTAVYYCATSYSNRWGWKYNYWGQGTQVTVSS | high polyreactivity
QVQLVESGGGLVQAGGSLRLSCATSGYTFTRYAMGWYRQAPGKERELVASISKTGGITYYADSVKGRFTISRDNAKNTVYLQMNSLKPEDTAVYYCNAVSKRRWAKYDYWGQGTQVTVSS | high polyreactivity
QVQLVESGGGLVQAGGSLRLSCATYAMGWSRQAPGKERELVASIRSGSTYYADSVKGRFTISRDNAKNTVYLQMNSLKPEDTAVYYCAAYEIYYEFDSWGQGTQVTVSS | low polyreactivity
QVQLVESGGGLVQAGGSLRLSCDASAYIFVYNVMGWYRQAHGKERELVAAITSGGSTNYADSVKGRFTISRDNAKNTVYLQMNSLKPEDTAVYYCNAQFDLTFRGTGDYWGQGTQVTVSS | low polyreactivity
QVQLVESGGGLVQAGGSLRLSCDASGFIFDHNAMGWYRQAPGKERELVAAISWGYGSTYYADSVKGRFTISRDNAKNTVYLQMNRLKTEDTAVYYCAARAVRYYAWVRGGCTSFDYWGQGTQVTVSS | high polyreactivity

Sequence | polyreactivity (PSR sort gate)
QVQLVESGGGLVQAGGSLRLSCDASGFIFLGNAMGWYRQAPGKERELVAAISSGGSTYADSVKGRFTISRDNAKNTVYLQMNSLKPEDTSVYYCAVERAFRAQNYHEYDYWGQGTQVTVSS | low polyreactivity
QVQLVESGGGLVQAGGSLRLSCDASGFTFIRNGMGWYRQAPGKERELVAAINSRGGNTYYADSVKGRFTISRDNAKNTVYLQMNSLKPEDTAVYYCNRVVQRWSTQYGYWGQGTQVTVSS | high polyreactivity
QVQLVESGGGLVQAGGSLRLSCDASGFTFTAYAMGSYRQAPGKERELVAAINWSGSRTYYADSVKGRFTISRDNAKNTVYLQMNSLNPEDTAVYYCAAGWTSSRYDYWGQGTQVTVSS | high polyreactivity
QVQLVESGGGLVQAGGSLRLSCDASGFTFYGNAMGWYRQAPGKERELVAAISGRGGSTYYADSVKGRFTISRDNAKNTVYLQMNSLKPEDTAVYYCAIYVSWPLYYYWGQGTQVTVSS | low polyreactivity
QVQLVESGGGLVQAGGSLRLSCDASGFTIYRYAMGWYRQAPGKERELVAAISSGGGSTYYADSVKGRFTISRDNAKNTVYLQMYILKPEDNAVYYCNAQGFIYYWLRYDYWGQGTQVTVSS | high polyreactivity
QVQLVESGGGLVQAGGSLRLSCDASGLIFGPYTMGWYRQAPGKERELVAAISYGGVSTYYADSVKGRFTISRDNAKNTVYLQMNSLNPEDTAVYYCARGDSTRVIRPSAREYDYWGQGTQVTVSS | low polyreactivity
QVQLVESGGGLVQAGGSLRLSCDASGLIFVDNAMGWYRQAPGKERELVAAIDSGGSTNYADSVKGRFTISRDNAKNTVYLQMNSLKPEDTAVYYCAANTYYWWGIMDYWGPGTQVTVSS | low polyreactivity
QVQLVESGGGLVQAGGSLRLSCDASGLIFWRNAMGWYRQAPGKERELVAGITSGGSTYYADSVKGRFTISRDNAKNTVYLQMNCLKPEDTAVYYCAKSTWQSYYYPRGSVYWGQGTQVTVSS | high polyreactivity
QVQLVESGGGLVQAGGSLRLSCDASGLIFYYYAMGWYRQAPGKERELVAAIRWSGGSTYYADSVKGRFTISRDNAKNTVYLQMNSLKPEDTAVYYCSEFYYWGQGTQVTVSS | high polyreactivity
QVQLVESGGGLVQAGGSLRLSCDASGNIFGLNAMGWYRQAPGKERELVSAISSGGSTNYADSVKGRFTISRDNAKNTVYLQMNSLKPEDTAVYYCAVQGSRYSYCYGYRFRTMDYWGQVTQVTVSS | high polyreactivity
QVQLVESGGGLVQAGGSLRLSCDASGRIFAGYAMGWYRQAPGKERELVASINWSGGSTYYADSVKGRFTISRDNAKNTVYLQMNSLKPEDTAVYYCAKEPTYRSGEAYVGLYYWGQGTQVTVSS | high polyreactivity
QVQLVESGGGLVQAGGSLRLSCDASGRIFAYYARGWYRQAPGKERELVAAITTNGGGTYYADSVKGRFTISRDNAKNTVYLQMNSLKPEDTGVYYCNAVKQRSSIFDYWGQGTQVTVSS | low polyreactivity
QVQLVESGGGLVQAGGSLRLSCDASGRIFSRNSMGWYRQAPGKERELVAANTWRGGSTYYADSVKGRFTISRDNAKNTVYLQLNSLKPEDPAVYYCNRDYRQYGYAYSGRYYWGQGTQVTVSS | high polyreactivity
QVQLVESGGGLVQAGGSLRLSCDASGRIISYNAMGWYRQAPGKERELVAAISWGGGSTYYADSVKGRFTISRDNAKNTVYLQMNSLKPEDTAVYYCAKGWYRIKRNDYWGQGTQVTVSS | low polyreactivity
QVQLVESGGGLVQAGGSLRLSCDASGRILIGYTMGWYRQAPGKERELVARINYSGGSTYYADSVKGRFTISRDNAKNTVYLQMNSLKPEDTAVYYCDADVRRGYYTWPPRRVYYWGQGTQVTVSS | high polyreactivity
QVQLVESGGGLVQAGGSLRLSCDASGRLFYRNAMGWYRQAPGKDRELVASITSAGRTYYADSVKGRFTISRDNAKNTVYLQMNSLKPEDTAVYYCAVRGYAKSFSNAKYYYWGQGTQVTVSS | low polyreactivity
QVQLVESGGGLVQAGGSLRLSCDASGRMFALYAMGWYRQAPGKERELVAAITWRGGRTRYADSVKGRFTISRDNAKNTVYLQMTSLKPEDTAVYYCNKRLFASRYDYWGQGTQVTVSS | high polyreactivity
QVQLVESGGGLVQAGGSLRLSCDASGRTFLYYAMGWSRQAPGKERELVAAISSGGSTNYADSVKGRFTISRDNAKNTVYLQMNSLKPEDTAVYYCNADYTSRDTSDVIYEYDYWGQGTQVTVTS | low polyreactivity
QVQLVESGGGLVQAGGSLRLSCDASGRTFPINAMGWYRQAPGKERELVAAISSGDGITYYADSVKGRFTISRDNAKNTVYLQMNSLKPEDTAVYYCAKELSQGLRYDYWGQGTQVTVSS | high polyreactivity
QVQLVESGGGLVQAGGSLRLSCDASGRTFRYNAMGWYRQAPGKERELVAAISTRGGSTYYADSVKGRFTISRDNAKNTVYLQMNSLKPEDTAVYYCAADGRYAYGYNHWGQGTQVTVSS | low polyreactivity
QVQLVESGGGLVQAGGSLRLSCDASGRTFWRYAMGWYRQAPGKERELVATISSGGSTNYADSVKGRFTISRDNAKNTVYLQMNSLKPEDTAVYYCNAEYSYYDLLAYDYWGQGTQVTVSS | low polyreactivity
